Reference: patent US20060281673A1, “Novel peptide inhibitor of hiv fusion that disrupts the internal trimeric coiled-coil of gp41” (priority 2003, published 2006)

Columns and labels:
N36^Mut(e,g) = assay: cell-based or functional assay
[1] = molecular target: pre-hairpin intermediate of gp41 (HIV-1 Env on effector cells) (HIV-1), P03377; assay: cell-based or functional assay

Binder | α: factor relating the homotrimerization association constant of L to Kref^trimer, fitted to the fusion inhibition data at λMT=1.5×10^-4 M (N36^Mut(e,g)) | α: factor relating the homotrimerization association constant of L to Kref^trimer, fitted to the fusion inhibition data at λMT=1.5×10^-5 M (N36^Mut(e,g)) | IC50, inhibition of HIV Env-mediated cell fusion (vaccinia virus-based reporter gene assay) [1] | fold activity in inhibiting fusion relative to N36 [1] | β: factor relating the heterotrimerization association constant of M and L to Kref^trimer, fitted to the fusion inhibition data at λMT=1.5×10^-4 M [1] | β: factor relating the heterotrimerization association constant of M and L to Kref^trimer, fitted to the fusion inhibition data at λMT=1.5×10^-5 M [1] | inhibition of HIV Env-mediated cell fusion (vaccinia virus-based reporter gene assay) [1]
SGIDQEQNNLTRLIEAQIHELQLTQWKIKQLLARIL (modifications not checked) [N36^Mut(e,g)] | 0.34 | 1.07 | 308 nM | 50 fold | 5.76 | 2.97 | 
SGIVQQLNNQLRAEEANQHLEQLSVWGSKQNQARRL (modifications not checked) [N36^Mut(a,d)] |  |  |  |  |  |  | > 0.1 mM
